Paper PMC10397247

How the values were obtained:
[1] = target: T1, 4H968-bN; test: two-hybrid library CCNG1;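 note: natural log of median RNA to DNA barcode read ratio; higher means stronger binding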
T1 chain: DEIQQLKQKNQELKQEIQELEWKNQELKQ

[2] = target: T2, 4H2673-bN; test: two-hybrid library CCNG1;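 note: natural log of median RNA to DNA barcode read ratio; higher means stronger binding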
T2 chain: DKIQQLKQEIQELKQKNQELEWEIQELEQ

[3] = target: T3, 4H855-bN; test: two-hybrid library CCNG1;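 note: natural log of median RNA to DNA barcode read ratio; higher means stronger binding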
T3 chain: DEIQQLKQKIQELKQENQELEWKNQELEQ

[4] = target: T4, 4H1831-bN; test: two-hybrid library CCNG1;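 note: natural log of median RNA to DNA barcode read ratio; higher means stronger binding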
T4 chain: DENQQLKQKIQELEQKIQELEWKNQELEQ

[5] = target: T5, 4H754-bN; test: two-hybrid library CCNG1;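 note: natural log of median RNA to DNA barcode read ratio; higher means stronger binding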
T5 chain: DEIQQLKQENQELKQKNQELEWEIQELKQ

[6] = target: T6, 4H2586-bN; test: two-hybrid library CCNG1;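 note: natural log of median RNA to DNA barcode read ratio; higher means stronger binding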
T6 chain: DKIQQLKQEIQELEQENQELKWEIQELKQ

[7] = target: T7, 4H918-bN; test: two-hybrid library CCNG1
T7 chain: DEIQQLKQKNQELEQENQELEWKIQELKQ

[8] = target: T8, 4H953-bN; test: two-hybrid library CCNG1
T8 chain: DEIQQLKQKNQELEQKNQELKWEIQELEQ

[9] = target: T9, 4H683-bN; test: two-hybrid library CCNG1
T9 chain: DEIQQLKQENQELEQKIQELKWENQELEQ

[10] = target: T10, 4H457-bN; test: two-hybrid library CCNG1
T10 chain: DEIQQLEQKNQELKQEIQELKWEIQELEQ

[11] = target: T11, 4H3926-bN; test: two-hybrid library CCNG1
T11 chain: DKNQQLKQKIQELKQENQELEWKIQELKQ

[12] = target: T12, 4H2627-bN; test: two-hybrid library CCNG1
T12 chain: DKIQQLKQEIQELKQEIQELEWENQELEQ

[13] = target: T13, 4H112-bN; test: two-hybrid library CCNG1
T13 chain: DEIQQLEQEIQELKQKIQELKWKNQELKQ

[14] = target: T14, 4H797-bN; test: two-hybrid library CCNG1
T14 chain: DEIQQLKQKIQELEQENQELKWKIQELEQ

[15] = target: T15, 4H3112-bN; test: two-hybrid library CCNG1
T15 chain: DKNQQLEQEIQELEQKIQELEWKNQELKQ

[16] = target: T16, 4H346-bN; test: two-hybrid library CCNG1
T16 chain: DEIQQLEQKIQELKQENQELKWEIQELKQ

[17] = target: T17, 4H3427-bN; test: two-hybrid library CCNG1
T17 chain: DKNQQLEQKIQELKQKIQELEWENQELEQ

[18] = target: T18, 4H2702-bN; test: two-hybrid library CCNG1
T18 chain: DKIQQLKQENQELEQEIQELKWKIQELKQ

[19] = target: T19, 4H4073-bN; test: two-hybrid library CCNG1
T19 chain: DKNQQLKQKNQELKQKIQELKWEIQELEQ

[20] = target: T20, 4H170-bN; test: two-hybrid library CCNG1
T20 chain: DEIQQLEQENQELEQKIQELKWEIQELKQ

[21] = target: T21, 4H1158-bN; test: two-hybrid library CCNG1
T21 chain: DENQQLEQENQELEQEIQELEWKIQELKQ

[22] = target: T22, 4H118-bN; test: two-hybrid library CCNG1
T22 chain: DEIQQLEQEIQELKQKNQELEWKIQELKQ

[23] = target: T23, 4H3010-bN; test: two-hybrid library CCNG1
T23 chain: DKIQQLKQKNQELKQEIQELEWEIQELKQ

[24] = target: T24, 4H780-bN; test: two-hybrid library CCNG1
T24 chain: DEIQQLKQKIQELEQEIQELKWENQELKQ

[25] = target: T25, 4H575-bN; test: two-hybrid library CCNG1
T25 chain: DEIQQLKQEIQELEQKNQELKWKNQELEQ

[26] = target: T26, 4H1064-AA; test: two-hybrid library CCmax; conditions: mean of both orientations
T26 chain: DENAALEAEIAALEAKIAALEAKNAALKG

[27] = target: T27, 4H478-AA; test: two-hybrid library CCmax; conditions: mean of both orientations
T27 chain: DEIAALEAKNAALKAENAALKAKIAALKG

[28] = target: T28, 4H3029-AA; test: two-hybrid library CCmax; conditions: mean of both orientations
T28 chain: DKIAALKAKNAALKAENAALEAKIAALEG

[29] = target: T29, 4H3939-AA; test: two-hybrid library CCmax; conditions: mean of both orientations
T29 chain: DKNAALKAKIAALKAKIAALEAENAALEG

[30] = target: T30, 4H497-AA; test: two-hybrid library CCmax; conditions: mean of both orientations
T30 chain: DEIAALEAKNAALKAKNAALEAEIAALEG

[31] = target: T31, 4H146-AA; test: two-hybrid library CCmax
T31 chain: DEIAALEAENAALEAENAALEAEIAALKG

[32] = target: T32, 4H3709-AA; test: two-hybrid library CCmax; conditions: mean of both orientations
T32 chain: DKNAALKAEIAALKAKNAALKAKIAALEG

[33] = target: T33, 4H3102-AA; test: two-hybrid library CCmax; conditions: mean of both orientations
T33 chain: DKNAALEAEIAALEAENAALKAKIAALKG

[34] = target: T34, 4H3591-AA; test: two-hybrid library CCmax; conditions: mean of both orientations
T34 chain: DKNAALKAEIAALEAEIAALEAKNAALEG

[35] = target: T35, 4H3628-AA; test: two-hybrid library CCmax; conditions: mean of both orientations
T35 chain: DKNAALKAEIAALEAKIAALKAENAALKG

[36] = target: T36, 4H2991-AA; test: two-hybrid library CCmax; conditions: mean of both orientations
T36 chain: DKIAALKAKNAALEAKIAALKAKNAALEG

[37] = target: T37, 4H1109-AA; test: two-hybrid library CCmax; conditions: mean of both orientations
T37 chain: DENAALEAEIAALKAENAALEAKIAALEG

[38] = target: T38, 4H1035-AA; test: two-hybrid library CCmax
T38 chain: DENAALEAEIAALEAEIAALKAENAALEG

[39] = target: T39, 4H1854-AA; test: two-hybrid library CCmax; conditions: mean of both orientations
T39 chain: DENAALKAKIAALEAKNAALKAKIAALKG

[40] = target: T40, 4H1391-AA; test: two-hybrid library CCmax; conditions: mean of both orientations
T40 chain: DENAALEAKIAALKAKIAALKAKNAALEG

[41] = target: T41, 4H675-AA; test: two-hybrid library CCmax; conditions: mean of both orientations
T41 chain: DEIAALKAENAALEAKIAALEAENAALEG

[42] = target: T42, 4H428-AA; test: two-hybrid library CCmax; conditions: mean of both orientations
T42 chain: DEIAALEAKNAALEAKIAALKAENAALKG

[43] = target: T43, 4H656-AA; test: two-hybrid library CCmax; conditions: mean of both orientations
T43 chain: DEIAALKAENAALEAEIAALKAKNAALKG

[44] = target: T44, 4H3121-AA; test: two-hybrid library CCmax; conditions: mean of both orientations
T44 chain: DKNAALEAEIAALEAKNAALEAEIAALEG

[45] = target: T45, 4H2948-AA; test: two-hybrid library CCmax; conditions: mean of both orientations
T45 chain: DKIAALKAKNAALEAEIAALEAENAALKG

[46] = target: T46, 4H3920-AA; test: two-hybrid library CCmax; conditions: mean of both orientations
T46 chain: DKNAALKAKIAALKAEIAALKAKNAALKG

[47] = target: T47, 4H2283-AA; test: two-hybrid library CCmax; conditions: mean of both orientations
T47 chain: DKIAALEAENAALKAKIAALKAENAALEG

[48] = target: T48, 4H189-AA; test: two-hybrid library CCmax; conditions: mean of both orientations
T48 chain: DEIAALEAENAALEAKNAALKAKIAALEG

[49] = target: T49, 4H3417-AA; test: two-hybrid library CCmax; conditions: mean of both orientations
T49 chain: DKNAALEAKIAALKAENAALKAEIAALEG

[50] = target: T50, 4H3446-AA; test: two-hybrid library CCmax; conditions: mean of both orientations
T50 chain: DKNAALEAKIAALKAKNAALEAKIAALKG

[51] = target: T51, 4H1146-AA; test: two-hybrid library CCmax; conditions: mean of both orientations
T51 chain: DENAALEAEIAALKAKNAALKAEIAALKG

[52] = target: T52, 4H1348-AA; test: two-hybrid library CCmax; conditions: mean of both orientations
T52 chain: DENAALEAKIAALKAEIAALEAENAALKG

[53] = target: T53, 4H2742-AA; test: two-hybrid library CCmax; conditions: mean of both orientations
T53 chain: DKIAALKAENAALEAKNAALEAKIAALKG

[54] = target: T54, 4H971-AA; test: two-hybrid library CCmax; conditions: mean of both orientations
T54 chain: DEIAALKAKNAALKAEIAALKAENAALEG

[55] = target: T55, 4H1809-AA; test: two-hybrid library CCmax; conditions: mean of both orientations
T55 chain: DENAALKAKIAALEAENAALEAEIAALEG

[56] = target: T56, 4H2713-AA; test: two-hybrid library CCmax
T56 chain: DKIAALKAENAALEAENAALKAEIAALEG

[57] = target: T57, 4H3066-AA; test: two-hybrid library CCmax; conditions: mean of both orientations
T57 chain: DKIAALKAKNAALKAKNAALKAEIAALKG

[58] = target: T58, 4H3666-AA; test: two-hybrid library CCmax; conditions: mean of both orientations
T58 chain: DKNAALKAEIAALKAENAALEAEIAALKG

[59] = target: T59, 4H2248-AA; test: two-hybrid library CCmax; conditions: mean of both orientations
T59 chain: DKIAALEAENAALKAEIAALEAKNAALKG

[60] = target: T60, 4H391-AA; test: two-hybrid library CCmax; conditions: mean of both orientations
T60 chain: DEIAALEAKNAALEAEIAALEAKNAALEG

B1: 4H112-bN (peptide)
chain: DEIQQLEQEIQELKQKIQELKWKNQELKQ
What does the source list for B1?
interaction score [1]: 0.452; interaction score [2]: 0.592; interaction score [3]: -0.582; interaction score [4]: 0.348; interaction score [5]: -0.189; interaction score [6]: -1.21; interaction score [7]: -0.456; interaction score [8]: -0.805; interaction score [9]: -0.968; interaction score [10]: 0.723; interaction score [11]: -1.67; interaction score [12]: 1.22; interaction score [13]: 1.46; interaction score [14]: -1.01; interaction score [15]: 1.44; interaction score [16]: -0.486; interaction score [17]: 1.06; interaction score [18]: 0.834; interaction score [19]: 1.25; interaction score [20]: -0.245; interaction score [21]: 0.877; interaction score [22]: -0.511; interaction score [23]: 1.25; interaction score [24]: 0.755; interaction score [25]: -0.471

B2: 4H1035-AA (peptide)
chain: DENAALEAEIAALEAEIAALKAENAALEG
For B2, which interaction score [26] is on record?
The interaction score was -0.486.

What about the interaction score [27] of the same binder?
The interaction score was -1.03.

What about the interaction score [28] of the same binder?
Its interaction score is -2.17.

What about the interaction score [29] of the same binder?
The interaction score was 0.466.

And the interaction score [30]?
Its interaction score is -1.73.

What about the interaction score [31] of the same binder?
Its interaction score is -1.39.

What about the interaction score [32] of the same binder?
The interaction score was -0.573.

And the interaction score [33]?
The interaction score was -1.34.

And the interaction score [34]?
Its interaction score is -1.08.

And the interaction score [35]?
Its interaction score is 1.36.

And the interaction score [36]?
Its interaction score is -1.12.

What about the interaction score [37] of the same binder?
Its interaction score is -1.69.

And the interaction score [38]?
Its interaction score is -0.719.

And the interaction score [39]?
Its interaction score is -0.616.

And the interaction score [40]?
The interaction score was 0.63.

What about the interaction score [41] of the same binder?
Its interaction score is -2.03.

And the interaction score [42]?
The interaction score was -1.35.

And the interaction score [43]?
The interaction score was -1.67.

And the interaction score [44]?
The interaction score was -1.67.

What about the interaction score [45] of the same binder?
Its interaction score is -1.56.

And the interaction score [46]?
Its interaction score is 1.9.

What about the interaction score [47] of the same binder?
The interaction score was -1.67.

And the interaction score [48]?
Its interaction score is -1.24.

What about the interaction score [49] of the same binder?
The interaction score was -1.73.

And the interaction score [50]?
The interaction score was -1.17.

And the interaction score [51]?
The interaction score was -1.34.

And the interaction score [52]?
Its interaction score is 1.45.

And the interaction score [53]?
The interaction score was -1.51.

And the interaction score [54]?
The interaction score was -0.881.

And the interaction score [55]?
The interaction score was -1.83.

And the interaction score [56]?
Its interaction score is -1.63.

What about the interaction score [57] of the same binder?
Its interaction score is -0.363.

And the interaction score [58]?
The interaction score was -1.55.

What about the interaction score [59] of the same binder?
The interaction score was -1.39.

What about the interaction score [60] of the same binder?
The interaction score was -1.84.
